Results taken from article PMC9940631 (Molecular Cancer Therapeutics, 2022).
Where a SMILES comes first, the peptide text is derived from it. [ ]: non-standard residue; d: D form. The star is where a group is joined. Dolaproine = CO[C@@H]([C@@H]1CCCN1)[C@@H](C)C(=O)O; Dil = CC[C@H](C)[C@H](NC)[C@@H](CC(=O)O)OC; X1 = C[C@@H](N*)[C@@H](O)c1ccccc1; NMeV = CN[C@H](C(=O)O)C(C)C

Experiments:
[1] = tested on: NCI-H292, MDA-MB-468, and NCI-H322 CDX tumors; experiment: Tumor MMAE accumulation after BT8009 in CDX models; format: in vivo, mouse; settings: after administration of BT8009, three CDX models, n = 3 per timepoint, LC/MS-MS
[2] = target: T1, endogenous Nectin-4 expressed on the cell membrane of MDA-MB-468 cells (Homo sapiens, UniProt Q96NY8); experiment: High content imaging of binding to live MDA-MB-468 cells; settings: anti-MMAE antibody detection
T1 sequence (Q96NY8 32-510): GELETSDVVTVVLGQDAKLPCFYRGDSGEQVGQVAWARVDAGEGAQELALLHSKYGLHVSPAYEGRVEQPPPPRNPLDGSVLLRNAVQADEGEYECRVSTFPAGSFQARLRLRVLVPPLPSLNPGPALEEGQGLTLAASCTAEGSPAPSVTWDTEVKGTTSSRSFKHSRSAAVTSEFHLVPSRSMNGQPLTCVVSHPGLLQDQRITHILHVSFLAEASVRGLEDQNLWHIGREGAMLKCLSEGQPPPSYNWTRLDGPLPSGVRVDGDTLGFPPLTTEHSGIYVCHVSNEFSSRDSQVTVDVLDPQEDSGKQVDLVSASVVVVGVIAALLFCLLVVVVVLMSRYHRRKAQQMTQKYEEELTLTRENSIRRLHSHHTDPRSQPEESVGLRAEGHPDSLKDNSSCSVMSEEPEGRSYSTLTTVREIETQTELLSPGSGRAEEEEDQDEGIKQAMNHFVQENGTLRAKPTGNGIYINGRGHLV

[3] = target: endogenous Nectin-4 expressed on the cell membrane of MDA-MB-468 cells (human (endogenous in MDA-MB-468)) (UniProt Q96NY8); experiment: high content imaging of binding to live cells
[4] = target: hNecl1 (human) (UniProt Q8N126); experiment: SPR
hNecl1 (human), sequence (Q8N126 25-398): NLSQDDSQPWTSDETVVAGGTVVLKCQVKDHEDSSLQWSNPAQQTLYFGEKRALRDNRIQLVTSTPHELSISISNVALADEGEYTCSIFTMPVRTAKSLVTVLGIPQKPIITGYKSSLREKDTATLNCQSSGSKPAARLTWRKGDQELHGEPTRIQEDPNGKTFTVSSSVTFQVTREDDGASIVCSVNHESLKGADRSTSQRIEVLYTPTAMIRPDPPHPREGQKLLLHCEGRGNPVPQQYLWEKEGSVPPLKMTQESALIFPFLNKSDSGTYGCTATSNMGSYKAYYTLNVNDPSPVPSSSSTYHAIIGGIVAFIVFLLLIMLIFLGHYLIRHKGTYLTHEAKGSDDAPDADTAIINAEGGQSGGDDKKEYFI

[5] = target: hNecl2 (human) (UniProt Q9BY67); experiment: SPR
hNecl2 (human), sequence (Q9BY67 45-442): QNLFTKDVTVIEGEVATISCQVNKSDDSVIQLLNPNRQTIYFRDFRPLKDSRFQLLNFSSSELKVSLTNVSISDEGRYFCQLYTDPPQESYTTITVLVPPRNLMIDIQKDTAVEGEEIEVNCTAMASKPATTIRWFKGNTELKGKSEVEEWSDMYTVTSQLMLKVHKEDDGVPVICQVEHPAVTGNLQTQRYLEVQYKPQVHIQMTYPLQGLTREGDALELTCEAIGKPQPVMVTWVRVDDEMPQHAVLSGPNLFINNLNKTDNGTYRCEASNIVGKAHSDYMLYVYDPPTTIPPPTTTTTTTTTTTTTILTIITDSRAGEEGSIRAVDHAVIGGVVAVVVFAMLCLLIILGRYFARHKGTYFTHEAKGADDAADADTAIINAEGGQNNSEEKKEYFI

[6] = target: hNecl3 (human) (UniProt Q8N3J6); experiment: SPR
hNecl3 (human), sequence (Q8N3J6 25-435): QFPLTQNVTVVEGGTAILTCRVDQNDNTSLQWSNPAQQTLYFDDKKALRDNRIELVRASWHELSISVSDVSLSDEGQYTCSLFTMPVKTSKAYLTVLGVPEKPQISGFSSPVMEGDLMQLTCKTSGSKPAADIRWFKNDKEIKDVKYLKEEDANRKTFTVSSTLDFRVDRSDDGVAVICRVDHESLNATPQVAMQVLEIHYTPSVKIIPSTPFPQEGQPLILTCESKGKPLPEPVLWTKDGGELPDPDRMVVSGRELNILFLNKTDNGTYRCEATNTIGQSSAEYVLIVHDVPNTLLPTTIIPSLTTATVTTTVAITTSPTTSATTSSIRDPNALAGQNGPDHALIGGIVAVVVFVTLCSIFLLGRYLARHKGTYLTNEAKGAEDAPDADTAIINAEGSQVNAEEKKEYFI

[7] = target: hNecl4 (human) (UniProt Q8NFZ8); experiment: SPR
hNecl4 (human), sequence (Q8NFZ8 21-388): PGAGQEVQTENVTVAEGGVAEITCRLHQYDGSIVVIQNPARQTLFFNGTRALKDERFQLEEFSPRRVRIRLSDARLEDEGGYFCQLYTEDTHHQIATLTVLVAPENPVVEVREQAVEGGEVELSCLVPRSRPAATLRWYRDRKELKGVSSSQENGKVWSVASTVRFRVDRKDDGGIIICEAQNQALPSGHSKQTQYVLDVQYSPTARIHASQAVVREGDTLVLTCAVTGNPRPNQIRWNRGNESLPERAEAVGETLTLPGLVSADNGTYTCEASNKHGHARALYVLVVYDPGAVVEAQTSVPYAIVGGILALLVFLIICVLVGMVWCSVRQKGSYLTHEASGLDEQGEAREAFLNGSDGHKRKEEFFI

[8] = target: hNecl5 (human) (UniProt P15151); experiment: SPR
hNecl5 (human), sequence (P15151 21-417): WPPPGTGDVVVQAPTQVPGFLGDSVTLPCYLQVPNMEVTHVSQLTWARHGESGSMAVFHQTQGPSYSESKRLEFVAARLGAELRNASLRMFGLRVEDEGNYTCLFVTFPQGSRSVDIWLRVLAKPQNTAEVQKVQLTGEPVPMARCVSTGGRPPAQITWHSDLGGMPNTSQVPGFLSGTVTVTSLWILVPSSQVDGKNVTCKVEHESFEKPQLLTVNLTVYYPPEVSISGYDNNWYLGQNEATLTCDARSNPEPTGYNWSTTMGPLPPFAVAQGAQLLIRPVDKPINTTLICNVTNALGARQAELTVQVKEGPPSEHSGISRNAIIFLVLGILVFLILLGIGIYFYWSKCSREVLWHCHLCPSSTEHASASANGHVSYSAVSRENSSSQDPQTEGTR

[9] = target: hNectin1 (human) (UniProt Q15223); experiment: SPR
hNectin1 (human), sequence (Q15223 31-517): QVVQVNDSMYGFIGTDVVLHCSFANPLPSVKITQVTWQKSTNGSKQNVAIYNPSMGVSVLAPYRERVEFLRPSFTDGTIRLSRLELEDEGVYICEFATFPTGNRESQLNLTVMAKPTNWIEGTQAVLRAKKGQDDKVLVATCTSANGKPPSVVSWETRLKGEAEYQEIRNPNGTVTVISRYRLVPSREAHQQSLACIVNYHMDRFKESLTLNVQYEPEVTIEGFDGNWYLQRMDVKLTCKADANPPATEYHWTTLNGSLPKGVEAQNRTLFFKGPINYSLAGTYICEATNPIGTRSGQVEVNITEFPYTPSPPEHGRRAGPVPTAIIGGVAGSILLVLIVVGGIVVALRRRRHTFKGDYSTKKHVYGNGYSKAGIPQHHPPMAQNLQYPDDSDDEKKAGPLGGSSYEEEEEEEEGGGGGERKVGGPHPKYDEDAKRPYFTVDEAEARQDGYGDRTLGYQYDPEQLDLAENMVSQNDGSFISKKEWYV

[10] = target: hNectin2 (human) (UniProt Q92692); experiment: SPR
hNectin2 (human), sequence (Q92692 32-538): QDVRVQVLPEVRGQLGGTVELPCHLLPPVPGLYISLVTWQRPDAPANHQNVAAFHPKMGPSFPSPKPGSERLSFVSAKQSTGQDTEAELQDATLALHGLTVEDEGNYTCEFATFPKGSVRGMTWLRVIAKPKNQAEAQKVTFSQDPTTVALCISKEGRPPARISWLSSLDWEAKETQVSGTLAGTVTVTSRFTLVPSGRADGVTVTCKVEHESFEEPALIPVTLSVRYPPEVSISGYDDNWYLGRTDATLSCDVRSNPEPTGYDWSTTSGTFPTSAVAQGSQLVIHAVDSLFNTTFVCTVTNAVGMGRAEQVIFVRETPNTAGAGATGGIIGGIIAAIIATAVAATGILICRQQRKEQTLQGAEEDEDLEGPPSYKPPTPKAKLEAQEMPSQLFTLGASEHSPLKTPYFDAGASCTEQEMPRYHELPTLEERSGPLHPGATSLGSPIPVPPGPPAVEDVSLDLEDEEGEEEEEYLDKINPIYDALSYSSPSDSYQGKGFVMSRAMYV

[11] = target: hNectin3 (human) (UniProt Q9NQS3); experiment: SPR
hNectin3 (human), sequence (Q9NQS3 58-549): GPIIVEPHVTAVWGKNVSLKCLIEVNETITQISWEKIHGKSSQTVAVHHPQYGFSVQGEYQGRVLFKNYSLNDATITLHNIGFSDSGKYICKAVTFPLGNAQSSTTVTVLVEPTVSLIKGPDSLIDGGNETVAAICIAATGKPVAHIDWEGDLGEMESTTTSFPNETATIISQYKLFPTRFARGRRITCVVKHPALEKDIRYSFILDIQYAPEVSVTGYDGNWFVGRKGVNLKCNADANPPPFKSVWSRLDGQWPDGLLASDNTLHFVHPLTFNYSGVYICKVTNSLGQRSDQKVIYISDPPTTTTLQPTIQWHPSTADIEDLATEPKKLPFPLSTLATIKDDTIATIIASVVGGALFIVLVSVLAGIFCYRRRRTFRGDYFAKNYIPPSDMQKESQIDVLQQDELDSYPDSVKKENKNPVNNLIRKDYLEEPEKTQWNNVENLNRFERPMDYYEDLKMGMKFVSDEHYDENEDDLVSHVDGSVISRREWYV

[12] = target: human Nectin-4 extra-cellular domain (human) (UniProt Q96NY8); experiment: SPR
[13] = target: Nectin-4; experiment: SPR of Nectin-4 ADC; format: binding; settings: read-out: KD for Nectin-4, chip coated with ADC, protein passed over it
[14] = tested on: LU-01–0412 PDX; experiment: LU-01–0412 lung PDX model; format: in vivo, mouse; settings: PDX NSCLC, Fig. 6D; rate and degree of regression comparable
[15] = tested on: head and neck PDX (HN-13–001); experiment: Head and neck PDX model; format: in vivo, mouse; settings: dosed initially at 5 mg/kg (D0, D7) and subsequently 10 mg/kg (D14)
[16] = In ICR SCID mouse; ref Enfortumab vedotin data from literature; cited from earlier work
[17] = terminal plasma half-life; ref EV multi-disciplinary review and evaluation; cited from earlier work
[18] = terminal plasma half-life; ref EV multi-disciplinary review and evaluation; cited from earlier work; remark: listed apart in the source

For `CC[C@H](C)[C@@H]([C@@H](CC(=O)N1CCC[C@H]1[C@H](OC)[C@@H](C)C(=O)N[C@H](C)[C@@H](O)c1ccccc1)OC)N(C)C(=O)[C@@H](NC(=O)[C@@H](NC)C(C)C)C(C)C` [MMAE, mono-methylauristatin E] (H-[NMeV]V[Dil][Dolaproine]-X1), the “time to peak tumor concentrations of total MMAE” value [1] was 2 to 4 h and the “affinity for the cells (in words)” value ([2]; MDA-MB-468 cells, 4°C) was “no affinity”.

Work on BCY8781 (peptide) yielded a Kd [3] of over 10000 nM.

BT8009 (peptide) gave a Kd [4] of over 20 µM, a Kd [5] of over 20 µM and a Kd [6] of over 20 µM. The Kd [7] was over 20 µM, the Kd [8] was over 20 µM and the Kd [9] was over 20 µM. For the same compound, the Kd [10] was over 20 µM, the Kd [11] was over 20 µM and the Kd [12] was 2.5 nM. It also gave a Kd [3] of 12.9 nM.

In the case of “Nectin-4 ADC: in-house EV analog; enfortumab-sequence antibody conjugated with MC-VC-PAB MMAE, 152kDa, DAR 3.98”, the Kd [13] is reported as 1.2 to 4.6 nM, the “tumor regrowth after treatment cessation” value [14] is reported as “tumor regrowth from drug cessation” and the “antitumor response, ADC” value [15] is reported as “minimally reduced tumor growth rate”. For the same compound, the “Bmax(RFU) on MDA-MB-468 cells” value ([2]; 45 minutes at 4°C) was 35.2 ± 2.2 RFU.

For enfortumab vedotin [EV], the “Vdss (L/kg), EV, Mouse” value [16] is listed as 0.08 L/kg, the “EV t1/2 rat” value [17] is listed as 1 to 1.3 days and the “EV t1/2 NHP” value [18] is listed as 0.7 to 1.7 days.
